Drawing on patent publication US20240059762A1 (SINGLE CELL TECHNOLOGY, published 2024), this text covers Kd, koff and kon for one molecule.

The assay addresses T1, Recombinant SARS-CoV-2 N protein His tagged (SARS-CoV-2, UniProt P0DTC9 1-419).
T1 construct: also called nucleocapsid (N) protein; recombinant HIS tagged SARS-CoV-2 N protein
Kind of assay: BLI (Octet Red 96E), mAb on anti-mouse Fc biosensor, N protein in solution, global 1:1 fit. On the technique in general: Biolayer interferometry detects binding as a change in optical thickness at a sensor tip.

B1: SCT-Pa20 (antibody, mouse IgG1, kappa, V domains shown)
VH: QVQLQQPGAELVKPGASVKLSCKASGYTFTDYWINWVKQRPGQGLEWIGNIYPGSSDTNYNEKFKRKATLTVDTSSSTAYMQLSSLTSDDSAVYYCARRPLFHAMDYWGQGTSVTVSS
VL: DIVLTQSPASLAVTLGQRATISCKASQSINYNGDNYMHWFQQKPGQPTKLLIYTASNLESGVPDRFSGSGSGTDFTLNIHPVEEEDAATYYCQQSKEFPWTFGGGTKLEIKR
What is called Kd is the constant that tells how readily two partners part at equilibrium. As a reminder, the koff is the first-order rate constant of dissociation. A word on the kon: it is the second-order rate constant of association. As for B1, the Kd turned out to be 5.37 pM, the koff came out at 3.09e-06 s⁻¹ and the kon amounted to 576000 M⁻¹ s⁻¹.
